The source of these data is patent US20240116985A1, “STAPLED PEPTIDES AND METHODS THEREOF” (priority 2020, published 2024).

B1: I-1038 (peptide)
peptide: Ac-[αAllylPro]D[tBuAla][B5(5)]DEAAFF[PyrS2″][Phe(2-Cl)][Bta][dT]-NH2
modifications: staple 1-4, 4-11
B2: I-1039 (peptide)
peptide: Ac-[αAllylPro]D[tBuAla][B5(5)]DEAAFL[PyrS2″][Phe(2-Cl)][Bta][dT]-NH2
modifications: staple 1-4, 4-11
B3: I-1024 (peptide)
peptide: Ac-[αAllylPro]D[tBuAla][B5(5)]DNAAFT[PyrS2″][Phe(2-F)][Bta]S-NH2
modifications: staple 1-4, 4-11
B4: I-1027 (peptide)
peptide: Ac-[αAllylPro]F[tBuAla][B5(5)]DDAADN[PyrS2″][3Thi][Bta]Q-OH
modifications: staple 1-4, 4-11
B5: I-2348 (peptide)
peptide: Ac-[αAllylPro]N[Cha][B5(31)]DH[Lys(iPr)]AFL[PyrS2″]F[Bta]Q-NH2
modifications: staple 1-4, 4-11; also: staple isomer, earlier eluting HPLC peak
B6: I-2352 (peptide)
peptide: Ac-[αAllylPro]N[Cha][B5(4)]DQ[Lys(iPr)]AFL[PyrS2″]F[Bta]A-NH2
modifications: staple 1-4, 4-11
B7: I-2350 (peptide)
peptide: Ac-[αAllylPro]N[Cha][B5(3)]DQ[Lys(iPr)]AFL[PyrS2″]F[Bta]K-NH2
modifications: staple 1-4, 4-11
B8: I-2354 (peptide)
peptide: Ac-[αAllylPro]N[Cha][B5(3)]DQ[hSer]AFL[PyrS2″]F[Bta]Q-NH2
modifications: staple 1-4, 4-11; also: earlier eluting isomer, configuration not given here
B9: I-2355 (peptide)
peptide: Ac-[αAllylPro]N[Cha][B5(4)]DQ[hSer]AFL[PyrS2″]F[Bta]Q-NH2
modifications: staple 1-4, 4-11; also: later eluting isomer composition (HPLC), configuration not given here
B10: I-2347 (peptide)
peptide: Ac-[αAllylPro]N[Cha][B5(31)]DK[Lys(iPr)]AFL[PyrS2″]F[Bta]Q-NH2
modifications: staple 1-4, 4-11
B11: I-2351 (peptide)
peptide: Ac-[αAllylPro]N[Cha][B5(4)]DQ[Lys(iPr)]AFL[PyrS2″]F[Bta]H-NH2
modifications: staple 1-4, 4-11
B12: I-2353 (peptide)
peptide: Ac-[αAllylPro][hSer][Cha][B5(4)]DQ[Lys(iPr)]AFL[PyrS2″]F[Bta]Q-NH2
modifications: staple 1-4, 4-11
B13: I-2345 (peptide)
peptide: Ac-[αAllylPro]N[Cha][B5(31)]D[hSer][Lys(iPr)]AFL[PyrS2″]F[Bta]Q-NH2
modifications: staple 1-4, 4-11
B14: I-2346 (peptide)
peptide: Ac-[αAllylPro]N[Cha][B5(31)]DK[Lys(iPr)]AFL[PyrS2″]F[Bta]Q-NH2
modifications: staple 1-4, 4-11; also: staple isomer, earlier eluting HPLC peak
B15: I-2349 (peptide)
peptide: Ac-[αAllylPro]N[Cha][B5(31)]DH[Lys(iPr)]AFL[PyrS2″]F[Bta]Q-NH2
modifications: staple 1-4, 4-11
B16: I-1913 (peptide)
peptide: Ac-[αAllylPro]D[tBuAla][B5(12)]D[Phe(3-COOH)][Nle]AFL[PyrS2(4)][3Thi][Bta]F-NH2
modifications: staple 1-4, 4-11; not fully specified; printed as Ac-PL3-Asp-Npg-B5-Asp-3COOHF-nLeu-Ala-Phe-Leu-PyrS2-3Thi-BztA-Phe-NH2; reading uncertain

Starred links: 1 amine or outer side, 2 acyl side, 3 side chain; linkers in the order of their positions; H or OH if unused. Positions of bridges follow the written chain, without caps; N, C: chain ends. Non-standard residues stand in square brackets, D forms with d. Primed or numbered codes have the meaning given here. PyrS2″ = (S)-3-amino-1-((pent-4-en-1-yloxy)carbonyl)pyrrolidine-3-carboxylic acid (stapling residue), C=CCCCOC(=O)N1CC[C@@](N[*:1])(C(=O)[*:2])C1; B5(4) = 2,2-bis(4-pentenyl)glycine = 2-amino-2-(pent-4-en-1-yl)hept-6-enoic acid (stitching residue), C=CCCCC(CCCC=C)(N[*:1])C(=O)[*:2]; B5(5) = 2,2-bis(4-pentenyl)glycine, 2-amino-2-(pent-4-en-1-yl)hept-6-enoic acid (stitching residue), C=CCCCC(CCCC=C)(N[*:1])C(=O)[*:2]; B5(31) = 2-amino-2-(pent-4-en-1-yl)hept-6-enoic acid (bis-pentenylglycine, stitching residue), C=CCCCC(CCCC=C)(N[*:1])C(=O)[*:2]; B5(12) = 2-amino-2-(pent-4-en-1-yl)hept-6-enoic acid (two olefin side chains), C=CCCCC(CCCC=C)(N[*:1])C(=O)[*:2]; B5(3) = 2,2-bis(4-pentenyl)glycine (stitching residue), C=CCCCC(CCCC=C)(N[*:1])C(=O)[*:2]; Phe(3-COOH) = N[C@@H](Cc1cccc(C(=O)O)c1)C(=O)O; Phe(2-Cl) = N[C@@H](Cc1ccccc1Cl)C(=O)O; Phe(2-F) = N[C@@H](Cc1ccccc1F)C(=O)O; Bta = N[C@@H](Cc1csc2ccccc12)C(=O)O; Lys(iPr) = CC(C)NCCCC[C@H](N)C(=O)O; αAllylPro = C=CC[C@@]1(C(=O)O)CCCN1; tBuAla = CC(C)(C)C[C@H](N)C(=O)O; 3Thi = N[C@@H](Cc1ccsc1)C(=O)O; Cha = N[C@@H](CC1CCCCC1)C(=O)O; PyrS2(4) = not defined here; hSer = N[C@@H](CCO)C(=O)O; Nle = CCCC[C@H](N)C(=O)O

The first test deals with full-length beta-Catenin (Uniprot ID P35222) (Homo sapiens (Human)) (UniProt P35222). Kind of test: fluorescence polarization competition; full-length beta-catenin, competitor 5FAM-TCF4 10-53. Background: Fluorescence polarisation rises when a labelled molecule tumbles more slowly, as on binding a larger partner.
Target sequence in this assay (P35222 whole entry): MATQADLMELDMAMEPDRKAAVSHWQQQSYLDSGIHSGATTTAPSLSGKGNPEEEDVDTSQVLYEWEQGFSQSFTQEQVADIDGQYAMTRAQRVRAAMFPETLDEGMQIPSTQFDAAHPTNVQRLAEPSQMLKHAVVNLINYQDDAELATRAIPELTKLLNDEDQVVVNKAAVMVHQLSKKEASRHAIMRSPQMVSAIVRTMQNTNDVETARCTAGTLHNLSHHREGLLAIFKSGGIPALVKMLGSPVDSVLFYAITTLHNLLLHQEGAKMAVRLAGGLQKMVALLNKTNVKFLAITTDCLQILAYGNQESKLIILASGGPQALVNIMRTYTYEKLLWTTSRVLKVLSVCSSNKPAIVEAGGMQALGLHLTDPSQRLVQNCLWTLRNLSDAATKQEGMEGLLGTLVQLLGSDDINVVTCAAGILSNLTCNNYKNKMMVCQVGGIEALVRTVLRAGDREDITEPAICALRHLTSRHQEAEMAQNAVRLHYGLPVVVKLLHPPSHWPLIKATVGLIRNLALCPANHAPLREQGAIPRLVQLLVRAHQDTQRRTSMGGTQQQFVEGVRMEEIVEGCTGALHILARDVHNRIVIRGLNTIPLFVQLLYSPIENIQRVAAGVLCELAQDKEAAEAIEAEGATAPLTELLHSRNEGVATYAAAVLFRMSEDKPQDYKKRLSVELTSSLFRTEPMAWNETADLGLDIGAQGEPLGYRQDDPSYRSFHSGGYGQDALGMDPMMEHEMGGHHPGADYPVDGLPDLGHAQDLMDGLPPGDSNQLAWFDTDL
For orientation: IC50 means the concentration that gives 50% inhibition. B1 showed an IC50 of 101 nM.
Consider B2, for which the IC50 amounted to 57 nM.
B3 came in with a half-inhibitory concentration (IC50) of 43 nM.

The next test has the same target. Kind of test: fluorescence polarization competition; 10 nM full-length beta-catenin + 10 nM 5FAM-TCF4 10-53 as competitor probe.
Target sequence in this assay (P35222 2-781 limits assumed): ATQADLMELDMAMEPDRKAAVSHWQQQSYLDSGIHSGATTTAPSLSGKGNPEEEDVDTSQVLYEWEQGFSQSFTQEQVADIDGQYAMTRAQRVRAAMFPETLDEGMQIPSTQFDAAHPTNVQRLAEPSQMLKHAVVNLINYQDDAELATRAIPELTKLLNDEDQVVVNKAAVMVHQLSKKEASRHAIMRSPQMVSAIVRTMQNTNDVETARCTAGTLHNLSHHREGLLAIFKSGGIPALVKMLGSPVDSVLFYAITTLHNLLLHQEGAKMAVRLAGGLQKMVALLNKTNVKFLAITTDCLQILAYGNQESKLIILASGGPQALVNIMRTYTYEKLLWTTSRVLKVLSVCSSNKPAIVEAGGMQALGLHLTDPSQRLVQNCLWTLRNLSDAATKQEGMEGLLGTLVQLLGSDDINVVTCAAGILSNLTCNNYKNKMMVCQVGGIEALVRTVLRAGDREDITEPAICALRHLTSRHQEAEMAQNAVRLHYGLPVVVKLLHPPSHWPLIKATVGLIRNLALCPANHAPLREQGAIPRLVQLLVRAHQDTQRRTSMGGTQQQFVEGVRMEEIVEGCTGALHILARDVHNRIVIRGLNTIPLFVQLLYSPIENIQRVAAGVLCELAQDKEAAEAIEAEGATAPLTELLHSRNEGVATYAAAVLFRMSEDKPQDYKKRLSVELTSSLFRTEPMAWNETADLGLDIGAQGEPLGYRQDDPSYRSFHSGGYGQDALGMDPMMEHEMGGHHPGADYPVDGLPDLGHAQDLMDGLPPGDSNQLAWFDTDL
A word on the EC50: it is the concentration at which the effect is half-maximal. With B1, the EC50 is 101 nM.
Turning to B4, the EC50 was 1140 nM.
On to B2, for which the concentration giving a half-maximal response (EC50) came to 57 nM.
In the case of B3, the concentration giving a half-maximal response (EC50) turned out to be 43 nM.

A further test shares this target. Kind of test: fluorescence polarization competition; 10 nM full-length beta-catenin + 10 nM 5FAM-TCF4(10-53) probe; peptide titrated 10 uM to 5 nM.
Target sequence in this assay (P35222 2-781 limits assumed): as above
With B5, the IC50 was 179 nM.
On the same count and under the same terms, under B6 stands 211 nM.
B7: the IC50 came to 63 nM.
As to B8, the IC50 was 100 nM.
Still for that read-out and setting: with B9 the figure was 417 nM; with B10, 5630 nM.
On the same count and under the same terms, with B11 the figure was 187 nM.
Still for that read-out and setting: with B12 the figure was 2760 nM; with B13, 1270 nM.
Take B14: the IC50 came out at 422 nM.
With B15, the IC50 came to 1160 nM.

The next test shares this target. Kind of test: fluorescence polarization competition; 10 nM full-length beta-catenin with 10 nM 5FAM-labeled TCF4 residues 10-53 probe (competitor displaced).
Target sequence in this assay (P35222 2-781 limits assumed): as above
As for B16, the IC50 came out at 119 nM.
